Assay results published in patent US20110136676, “GEOMETRIC PATTERNS AND LIPID BILAYERS FOR DNA MOLECULE ORGANIZATION AND USES THEREOF” (published 2011).

Assays:
EcoRI E111Q E111Q = conditions: CITED F17; cited from earlier work
LacI = LacI (UniProt P03023); conditions: CITED F24; cited from earlier work
EcoRI = conditions: CITED F17; cited from earlier work
[1] = test system: RNA polymerase holoenzyme (Escherichia coli); conditions: CITED; cited from earlier work
Mlh1-Pms1 = Mlh1-Pms1 (Saccharomyces cerevisiae, UniProt P38920;P14242 P38920:1-769,P14242:1-873); assay: EMSA; 25 mM Hepes pH 7.6, 50 mM NaCl, RT; QD/antibody labelling did not disrupt binding; conditions: tags: FLAG inserted after T448 or Y499 of Mlh1 and/or HA after D565 of Pms1, anti-tag quantum dots; chain copies: heterodimer (stated); label: 5'-32P
Chain of Mlh1-Pms1 (P38920 whole entry, chain 1 of 2): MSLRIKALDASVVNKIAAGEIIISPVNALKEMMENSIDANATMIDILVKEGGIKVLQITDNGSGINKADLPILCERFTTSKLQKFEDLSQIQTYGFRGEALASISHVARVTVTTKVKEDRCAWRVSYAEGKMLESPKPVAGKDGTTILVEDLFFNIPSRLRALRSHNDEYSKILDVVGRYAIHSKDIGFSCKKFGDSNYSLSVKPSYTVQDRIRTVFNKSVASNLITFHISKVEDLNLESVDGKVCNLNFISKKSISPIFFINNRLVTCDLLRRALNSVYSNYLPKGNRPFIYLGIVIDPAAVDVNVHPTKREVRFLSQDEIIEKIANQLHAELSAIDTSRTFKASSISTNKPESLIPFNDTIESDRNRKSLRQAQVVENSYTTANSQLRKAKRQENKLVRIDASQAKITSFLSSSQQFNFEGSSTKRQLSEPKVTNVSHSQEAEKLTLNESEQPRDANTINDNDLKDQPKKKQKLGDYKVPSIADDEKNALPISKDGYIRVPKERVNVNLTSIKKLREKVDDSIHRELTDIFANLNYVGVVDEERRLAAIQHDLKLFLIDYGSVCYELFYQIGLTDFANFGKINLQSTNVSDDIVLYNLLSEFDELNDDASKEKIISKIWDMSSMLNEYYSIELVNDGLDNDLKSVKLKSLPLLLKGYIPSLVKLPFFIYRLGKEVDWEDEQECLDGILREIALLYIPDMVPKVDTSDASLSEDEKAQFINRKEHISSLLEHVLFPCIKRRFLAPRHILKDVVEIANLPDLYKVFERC
Chain of Mlh1-Pms1 (P14242 whole entry, chain 2 of 2): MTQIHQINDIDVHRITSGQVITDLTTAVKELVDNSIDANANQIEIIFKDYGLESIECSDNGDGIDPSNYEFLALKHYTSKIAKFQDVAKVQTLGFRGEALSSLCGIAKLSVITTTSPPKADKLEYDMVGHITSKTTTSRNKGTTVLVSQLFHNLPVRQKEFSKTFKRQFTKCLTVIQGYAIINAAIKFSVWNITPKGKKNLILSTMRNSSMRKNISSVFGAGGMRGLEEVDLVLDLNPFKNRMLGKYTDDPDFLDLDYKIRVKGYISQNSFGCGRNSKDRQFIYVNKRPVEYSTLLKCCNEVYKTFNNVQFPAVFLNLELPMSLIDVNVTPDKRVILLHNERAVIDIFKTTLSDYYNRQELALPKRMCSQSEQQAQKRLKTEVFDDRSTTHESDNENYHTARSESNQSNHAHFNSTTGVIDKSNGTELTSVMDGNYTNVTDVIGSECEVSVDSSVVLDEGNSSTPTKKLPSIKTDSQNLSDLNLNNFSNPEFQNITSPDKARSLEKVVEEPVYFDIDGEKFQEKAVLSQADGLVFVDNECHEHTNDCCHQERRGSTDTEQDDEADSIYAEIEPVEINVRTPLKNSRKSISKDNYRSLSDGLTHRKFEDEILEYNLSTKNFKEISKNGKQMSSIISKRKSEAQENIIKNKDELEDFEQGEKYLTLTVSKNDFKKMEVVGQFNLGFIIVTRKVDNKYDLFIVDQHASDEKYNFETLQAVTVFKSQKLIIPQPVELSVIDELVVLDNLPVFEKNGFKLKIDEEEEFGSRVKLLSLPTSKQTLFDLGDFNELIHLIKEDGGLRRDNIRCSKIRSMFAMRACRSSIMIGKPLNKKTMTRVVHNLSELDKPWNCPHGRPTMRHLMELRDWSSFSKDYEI
Method: Ensemble characterization of Mlh-Pms1 DNA-binding activity. […] Samples were loaded on 4% (w/v) non-denaturing polyacrylamide gels containing 0.5×TBE and electrophoresed at 130 V for 1 hour at RT. Gels were dried on 3mM Whatman paper and visualized by Phosphorlmaging. Analysis was done using ImageJ.

Chain of LacI (P03023 whole entry): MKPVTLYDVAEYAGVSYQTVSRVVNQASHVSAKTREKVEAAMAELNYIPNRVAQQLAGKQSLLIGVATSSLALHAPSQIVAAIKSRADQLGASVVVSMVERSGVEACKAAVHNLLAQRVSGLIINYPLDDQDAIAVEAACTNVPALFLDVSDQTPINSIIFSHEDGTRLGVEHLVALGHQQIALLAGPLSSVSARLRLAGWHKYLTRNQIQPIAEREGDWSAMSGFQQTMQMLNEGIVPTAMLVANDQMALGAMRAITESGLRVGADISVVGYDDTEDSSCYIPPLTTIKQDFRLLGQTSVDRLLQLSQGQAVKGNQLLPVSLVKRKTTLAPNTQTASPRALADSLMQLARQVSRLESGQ

Question: Which results are given for nonspecific DNA?
Answer: Kd (EcoRI E111Q E111Q): 4.8 pM; Kd (LacI): > 1000 pM

Question: Which Kd (EcoRI E111Q E111Q) does the source give for EcoRI cognate site DNA here?
Answer: The Kd was 0.0025 pM.

Question: What about the Kd (EcoRI) of the same molecule?
Answer: The Kd was 6.7 pM.

Question: For lambda PL promoter, which Kd [1] is on record?
Answer: Its Kd is 100 pM.

Question: With lambda PR promoter as the molecule, how does the Kd [1] read?
Answer: The Kd was 10 pM.

B1: 40 bp S1/S2 duplex (dsDNA)
DNA 1: ACCGAATTCTGACTTGCTAGGACATCTTTGCCCACGTTGA
DNA 2: TCAACGTGGGCAAAGATGTCCTAGCAAGTCAGAATTCGGT
Question: Does B1 bind (Mlh1-Pms1)?
Answer: Result: binds
